Experimental data published in paper PMC10980349 (The Plant Cell, 2023).

What was measured:
[1] = biological target: microtubules assembled from porcine tubulin (porcine) (UniProt P02550); test: co-sedimentation
SEC-MALS = biological target: the molecule itself; test: SEC-MALS

| Kd [1] [µM] | Binder | stoichiometry N (SEC-MALS) |
| --- | --- | --- |
| 17.4 | SPR2(1 to 500)-GFP (domain or fragment) MSTPTTSGSAAKPTRPARSSSLATRSCSNSGSLTSFQAMVELKQKILTSISKLADRDTYQIAVEDLEKTIQSLTPETLPMFLNCLYDSCSDPKPAVKKECLHLLSYVCSLHCDSTAAHLTKIIAQIVKRLKDSDSGVRDACRDTIGALSGIYLKGKEEGTNTGSASLAVGLFVKPLFEAMGEQNKVVQSGASMCMARMVESAASPPVTSFQKLCPRICKLLSNSSFLAKASLLPVVSSLSQVGAIAPQSLESLLESIHDCLGSTDWVTRKAAAETLTALASHSSGLIKEKTDSTITVLETCRFDKIKPVRESVTEALQLWKKISGKYVDGASDDSKLSASEQLGSEKNGEKRSNLADLMKKEASDGSTLSPDSASKGKGCFPEKAVGLLKKKAPVLSDKDFNPEFFQRLERRQSVEVVVPRRCKNNDEEESGLDDLNAMGSSNRLKNTQADDKQVKGRFDGNGSQARTSGDDKAGVVNGKETPGHHAPVSNTDNQSEGSF |  |
|  | full-length SPR2 (SEC-MALS sample) (natural protein, Arabidopsis thaliana, UniProt Q9T041 1-864, looked up) MSTPTTSGSAAKPTRPARSSSLATRSCSNSGSLTSFQAMVELKQKILTSISKLADRDTYQIAVEDLEKTIQSLTPETLPMFLNCLYDSCSDPKPAVKKECLHLLSYVCSLHCDSTAAHLTKIIAQIVKRLKDSDSGVRDACRDTIGALSGIYLKGKEEGTNTGSASLAVGLFVKPLFEAMGEQNKVVQSGASMCMARMVESAASPPVTSFQKLCPRICKLLSNSSFLAKASLLPVVSSLSQVGAIAPQSLESLLESIHDCLGSTDWVTRKAAAETLTALASHSSGLIKEKTDSTITVLETCRFDKIKPVRESVTEALQLWKKISGKYVDGASDDSKLSASEQLGSEKNGEKRSNLADLMKKEASDGSTLSPDSASKGKGCFPEKAVGLLKKKAPVLSDKDFNPEFFQRLERRQSVEVVVPRRCKNNDEEESGLDDLNAMGSSNRLKNTQADDKQVKGRFDGNGSQARTSGDDKAGVVNGKETPGHHAPVSNTDNQSEGSFTSNRGNWSAIQRQLLQLERQQTNLMNMLQEFIGGSHDSMVTLEGRVRGLERIVEDMARDLSISSGRRANLTAGFGKYNSFANYPTGKYNGRAPGERGSQTDGAMRGRMWNSDMADDWFIPPHAASRNGQAGPRRSPRSEQYENEHMGNGRRGWDNKASGTIRFGEGPSARSVWQASKDEATLEAIRVAGEDGAVPRPTRVAVAPEAEAMGDDDNEGQERDPIWVSWSNAMHSLRVGDIDAAYAEVLCAGDQHLVIKLMDKTGPSLDQMSNEIANEALNFISQFLLDHSLYDICLSWSQQLLELVLQDGADTFGVPMELKTEILYNLQDACSTMDPPEDWEGPAPEQLVVQLASVWEIDLQQFDK | 4 |
